Test results taken from paper PMC9951844 (Nature Communications, 2023).

Tests used:
[1] = biological target: SARS-CoV-2 Beta (B.1.351) S1 (SARS-CoV-2 Beta (B.1.351), strain)
[2] = biological target: SARS-CoV-2 Lambda (C.37) RBD (SARS-CoV-2 Lambda (C.37), strain)
[3] = biological target: SARS-CoV-2 Delta (B.1.617.2) S1 (SARS-CoV-2 Delta (B.1.617.2), strain)
[4] = biological target: S-R/Wildtype spike (SARS-CoV-2 hCoV-19/Wuhan/WIV04/2019, UniProt P0DTC2, stabilised)
[5] = biological target: Omicron BA.1 spike (based on S-R/Wildtype spike) (SARS-CoV-2 Omicron BA.1 (B.1.1.529), S371L | S373P | S375F | K417N)
[6] = biological target: SARS-CoV-2 Gamma (P.1) S1 (SARS-CoV-2 Gamma (P.1), strain)
[7] = biological target: Delta spike (based on S-R/Wildtype spike) (SARS-CoV-2 Delta (B.1.617.2), L452R | T478K)
[8] = biological target: SARS-CoV-2 Kappa (B.1.617.1) spike ECD (SARS-CoV-2 Kappa (B.1.617.1), strain)
[9] = biological target: SARS-CoV-2 wildtype S1 (SARS-CoV-2 wildtype (Wuhan), UniProt P0DTC2)
[10] = biological target: SARS-CoV-2 Omicron BA.1 (B.1.1.529) RBD (SARS-CoV-2 Omicron BA.1 (B.1.1.529), strain)

Measured: binding result

B1: YB13-208 (antibody, V domains shown)
V domain 1: QITLKESGPTLVKPTQTLTLTCTFSGLSLSTSGVSVGWIRQPPGKAPEWLALIYWDDDKRYSPSLTSRLSITKDTSKNQVVLTMTNMDPVDTATYYCAHPRYYGDSSGYYWIWGQGTMVTVSS
V domain 2: SYELTQPPSVSVSPGQTARITCSGDALPKQYAYWYQQKPGQAPVVVMYKTSERPSGIPERFSGSSSGTTVTLTISGVQAEDEADYYCQSADSSGFYVFGTGTQVTVL
binds: [1] | [2] | [3] | [4] | [5] | [6] | [7] | [8] | [9]

B2: YB12-197 (antibody, V domains shown)
VH: EVQLVESGGGLVQPGGSLRLSCAASGFTVSSNYMNWVRQAPGKGLEWVSVIYSGGSTFYADSVKGRFTISRDNSKNTLYLQMNSLRAEDTAVYYCARDAYNYGANWGQGTLVTVSS
VL: HLVLTQSPSASASLGASVKLTCTLSSGHSNNAIAWHQQQPEKGPRYLMHLNSDGSHTKGDGIPDRFSGSSSGAERYLTISSLQSEDEAEYYCQTWGTDIHWVFGGGTKLTVR
binds: [1] | [2] | [3] | [4] | [5] | [6] | [7] | [10] | [8] | [9]

B3: YB9-120 (antibody, V domains shown)
VH: QVQLQESGPGLVKPSGTLSLTCAVSGGSIRTTKWWSWVRQPPGKGLEWIGEIHHGGNTNYNPSLKSRVTISVDKSKNQFSLKLTSVTAADTAVYYCARDGGGVGTPLEYWGQGTLVTVSS
VL: QSGLTQPASVSGSPGQSITISCTGTISDVGAYNYVSWYQQHPGRAPKVVIYDVSERPSGTSNRFSGSKSGNTASLTISGLQAEDEADYYCSSFTNTTPVVFGGGTKLTVL
binds: [1] | [2] | [3] | [4] | [5] | [6] | [7] | [10] | [8] | [9]

B4: YB12-267 (antibody, V domains shown)
VH: KVQLVESGGGLIQPGGSLRLSCAASGLTVSSNYMNWVRQAPGKGLEWVSLIFSGGSTYYADSVKGRFTISRDYSKNTLYLQMNSLRAEDTAVYYCARDLMEVGGMDVWGQGTTVTVSS
VL: QSVLTQPPSASGTPGQRVTISCSGSSSYIGSIYWYQQLPGAAPKLLVFSDHKRPSGVPDRFSGSKSGTSASLAISGLQSEDEAGYYCATWDDSLNGYVFGTGTKVTVL
binds: [1] | [2] | [3] | [6] | [10] | [8] | [9]

B5: YB13-281 (antibody, V domains shown)
VH: EVQLVESGGGLVKPGGSLRLSCAASGFTFSSYSMNWVRQAPGKGLEWVSSISSSSSYIHYADSVKGRFTISRDNAKNSLYLQMNSLRAEDTAVYYCARVSSKDYYDRSGYLRGDYDYGMDVWGQGTTVTVSS
VL: QSVLTQPPSVSGAPGQRVTISCTGNSSNIGAAYDVHWYQQLPGTAPKLLIYGNSNRPSGVPDRFSGSKSGTSASLAITGLQAEDEADYYCQSYDSSLSGVFGGGTKLTVL
binds: [1] | [2] | [3] | [4] | [5] | [6] | [7] | [10] | [8] | [9]

B6: YB12-269 (antibody, V domains shown)
VH: EVQLVESGGALVRPGGSLRVSCAASGITVNFNYMTWVRQGPGKGLEWVASIYPGGSTFYADSVKGRFTISRDNSKNTLYLQMTSVRDEDTALYYCARDEGPGMDVWGQGTTVTVSS
VL: QSVLTQPPSVSGAPGQRVTISCTGYSSNIEAGSDVHWYQQPPGTAPKLLIYNNNNRPSGVPDRFSGSKSGTSASLAITGLQPGDEGDYYCQSYDSRLSGYVFGTGTKVTVL
binds: [1] | [2] | [3] | [6] | [10] | [8] | [9]
